Columns and labels:
Type in all cases: biochemical, Synechococcus elongatus PCC7942
purified h6-orf0489 = assay: orf0489 aldehyde dehydrogenase activity assay with nonyl-aldehyde (NAD(P)H production at 340 nm); details: nonyl-aldehyde 1 mM; h6-orf0489 0.3, 1.5 or 6 μM; NAD+ or NAD(P)+ 1 mM; 30 minutes
Method: The reaction was started by mixing together a fatty aldehyde substrate, purified h6-orf0489 and NAD(P)+. The progress of the reaction was assessed by measuring the production of NAD(P)H at 340 nm using the SpectraMax M5. […] Nonyl-aldehyde and either NAD+ or NAD(P)+ were used at 1 mM. Measurements were taken every 30 seconds for 30 minutes.
To directly test whether orf0489 is an aldehyde dehydrogenase, a histidine-tagged version of this protein (h6-orf0489) was overexpressed in E. coli and purified using metal affinity chromatography. The purified protein was then employed in an in vitro reaction using a fatty aldehyde as a substrate.
The reaction was started by mixing together a fatty aldehyde substrate (nonyl-aldehyde at 1 mM), various concentrations of purified h6-orf0489 (0.3, 1.5 or 6 μM final concentration), and NAD+ or NAD(P)+ at 1 mM. The progress of the reaction was assessed by measuring the production of NAD(P)H at 340 nm using the SpectraMax M5; measurements were taken every 30 seconds for 30 minutes.

[1] = biological target: h6-0489 (histidine-tagged orf0489 aldehyde dehydrogenase) (Synechococcus elongatus, UniProt Q31QZ8); assay: Enzymatic characterization of h6-0489 with fatty aldehydes of varying chain length (NADH production at 340 nm)
Method: (§1) The protein eluted off of SEC as a single monodisperse peak. The enzymatic characteristics of purified protein were then measured in vitro using fatty aldehydes of varying chain length (4-16) as substrate. In this assay, h6-0489 was incubated with 150 mM NaCl, 50 mM Tris, pH 7.5, 0.05% IGEPAL, 1 mM NAD+ and varying concentrations of the fatty aldehyde substrate being tested. The reaction was carried out in a cuvette with a 1 cm pathlength, and the progress was assessed by measuring the production of NADH at 340 nm using a SpectraMax M5 spectrophotometer. Measurements were taken every second for 2-5 minutes, and the initial velocities of each reaction were determined in the linear range. The A340 was converted into amount of NADH formed using the molar extinction coefficient for NADH (6200 M^−1 cm^−1). The Michaelis constants Km and Vmax were determined by fitting the data using non-linear progression in Prism to the equation Y=(Vmax*X)/(Km+X), where X=substrate concentration and Y=velocity. Kcat was determined from the equation Vmax=Kcat*Et, where Et=the concentration of h6-0489. Data are presented in Table C as averages of at least three different experiments, with errors presented as standard deviation.

[2] = substrate: CCCC=O; assay: as above; details: other: aldehyde as substrate, 1 mM NAD+, pH 7.5, average of at least three experiments
Method: as §1

[3] = substrate: CCCCCCCCCCCC=O; assay: as above; details: other: aldehyde as substrate, 1 mM NAD+, pH 7.5, average of at least three experiments
Method: as §1

[4] = substrate: CCCCCC=O; assay: as above; details: other: aldehyde as substrate, 1 mM NAD+, pH 7.5, average of at least three experiments
Method: as §1

[5] = substrate: CCCCCCCCCC=O; assay: as above; details: other: aldehyde as substrate, 1 mM NAD+, pH 7.5, average of at least three experiments
Method: as §1

[6] = substrate: CCCCCCCC=O; assay: as above; details: other: aldehyde as substrate, 1 mM NAD+, pH 7.5, average of at least three experiments
Method: as §1

In the case of `CCCCCCCCC=O` [nonyl-aldehyde], the “utilization as substrate (increased NAD(P)H production relative to controls)” value (purified h6-orf0489) is reported as “utilizes nonyl-aldehyde as a substrate”.

With hexadecenal the “kcat (AVE)” value ([1]; aldehyde as substrate, 1 mM NAD+, 150 mM NaCl, 50 mM Tris pH 7.5, 0.05% IGEPAL, average of at least three experiments) was 10.8 s⁻¹, the Km ([1]; aldehyde as substrate, 1 mM NAD+, pH 7.5, average of at least three experiments, read-out: (μM) (AVE) [Km]) was 38.1 µM and the “oxidation of the aldehyde to a free fatty acid by h6-0489 in vitro” value ([1]; in vitro) was “able to oxidize hexadecenal to a free fatty acid”.

B1: h6-0489 (histidine-tagged orf0489 aldehyde dehydrogenase) (Synechococcus elongatus PCC 7942 = FACHB-805) (protein)
chain: MTAVVLPAAAETLAALQATFDRGDTRTLAFRLARLQDLAKLVADNEAELLQALASDLRKPALEAYASEIYFVRDQIKLTCKHLRRWMQPEKQSISLMQQPGQAYRQAEPLGVVLIIGPWNYPFQLLITPLIGAIAAGNCAVLKPSELAPATSSLIQRLISDRFDPDYIRVLEGDASVSQALITQPFDHIFFTGGTAIGRKVMAAAAENLTPVTLELGGKSPCIVDTDIDLDVAARRIAWGKFFNAGQTCIAPDYLLVQRTVAEPFIEALIDNIQQFYGEDPQQSADYARIVSDRHWQRLNSLLVDGTIRHGGQVDRSDRYIAPTLITDVNWRDPILQEEIFGPLLPILIYDQLDEAIAQIRAQPKPLALYLFSRDRQVQERVLAETSAGSVCLNDTILQVGVPDAAFGGVGPSGMGGYHGKASFETFSHYKLVLKRPFWLDLALRYPPYGDKINLFRKL
In the case of B1, the Km [2] is reported as 189.4 µM, the kcat [2] is reported as 7.65 s⁻¹ and the kcat/Km [2] is reported as 40000 M⁻¹ s⁻¹. It also gave a Km [3] of 11.4 µM, a kcat [3] of 9.29 s⁻¹ and a kcat/Km [3] of 818000 M⁻¹ s⁻¹. For the same molecule, the Km [4] was 19.3 µM, the kcat [4] was 8.51 s⁻¹ and the kcat/Km [4] was 442000 M⁻¹ s⁻¹. The Km [5] was 7.6 µM, the kcat [5] was 12.1 s⁻¹ and the kcat/Km [5] was 1.59e+06 M⁻¹ s⁻¹. For the same molecule, the Km [6] was 15.4 µM, the kcat [6] was 13.5 s⁻¹ and the kcat/Km [6] was 875000 M⁻¹ s⁻¹.
